Data published in patent US20190202921A1 (Five Prime, published 2019).
Positions count from the first letter of the chain named. In names and notes the source's numbering stands. Each block holds one binder with its values, some of them ahead of it.

Tests used:
[1] = target: T1, cynomolgus monkey CSF1R ECD (cynomolgus monkey, UniProt P07333 20-505 (human entry)); assay: binding test as described in WO 2011/140249
T1 construct: also called cynoCSF1R ECD
T1 chain: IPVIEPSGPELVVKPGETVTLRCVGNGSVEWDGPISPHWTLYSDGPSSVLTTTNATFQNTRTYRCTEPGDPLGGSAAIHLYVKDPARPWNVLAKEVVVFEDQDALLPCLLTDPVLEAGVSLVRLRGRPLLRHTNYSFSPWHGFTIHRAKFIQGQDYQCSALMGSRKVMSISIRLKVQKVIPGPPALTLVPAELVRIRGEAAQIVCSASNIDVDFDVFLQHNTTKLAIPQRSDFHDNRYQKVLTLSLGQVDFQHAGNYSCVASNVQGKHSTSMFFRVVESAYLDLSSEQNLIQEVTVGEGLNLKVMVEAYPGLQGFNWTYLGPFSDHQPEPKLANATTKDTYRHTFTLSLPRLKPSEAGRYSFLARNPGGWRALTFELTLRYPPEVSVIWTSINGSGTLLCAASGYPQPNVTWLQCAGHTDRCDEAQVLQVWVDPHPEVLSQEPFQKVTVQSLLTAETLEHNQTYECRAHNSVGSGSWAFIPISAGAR

mouse CSF1R ECD = target: T2, mouse CSF1R ECD (mouse, UniProt P09581 20-515); assay: binding test as described in WO 2011/140249
T2 construct: extracellular domain
T2 sequence (looked up): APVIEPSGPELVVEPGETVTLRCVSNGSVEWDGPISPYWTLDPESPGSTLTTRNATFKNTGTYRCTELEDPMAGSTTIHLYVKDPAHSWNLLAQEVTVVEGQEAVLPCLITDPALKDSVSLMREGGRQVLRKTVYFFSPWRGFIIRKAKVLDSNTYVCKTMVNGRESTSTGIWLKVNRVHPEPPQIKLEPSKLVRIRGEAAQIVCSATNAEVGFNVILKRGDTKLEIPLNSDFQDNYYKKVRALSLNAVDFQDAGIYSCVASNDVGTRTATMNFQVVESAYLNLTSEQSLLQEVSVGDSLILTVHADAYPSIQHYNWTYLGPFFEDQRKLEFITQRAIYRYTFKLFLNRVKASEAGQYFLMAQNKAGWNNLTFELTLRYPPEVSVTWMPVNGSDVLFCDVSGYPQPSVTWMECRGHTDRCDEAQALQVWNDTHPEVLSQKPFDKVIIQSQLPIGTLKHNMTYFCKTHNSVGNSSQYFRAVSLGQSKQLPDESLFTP

rat PD-1 = target: T3, rat PD-1 (rat, UniProt D3ZIN8 25-287); assay: FACS analysis
T3 sequence: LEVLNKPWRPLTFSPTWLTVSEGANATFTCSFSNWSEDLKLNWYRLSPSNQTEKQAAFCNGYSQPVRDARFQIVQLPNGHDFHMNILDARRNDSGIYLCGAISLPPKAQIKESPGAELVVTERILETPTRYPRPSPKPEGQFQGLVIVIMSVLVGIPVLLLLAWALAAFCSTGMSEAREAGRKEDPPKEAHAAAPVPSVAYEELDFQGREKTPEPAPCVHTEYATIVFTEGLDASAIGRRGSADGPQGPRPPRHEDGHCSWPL

- binding result [1]: binds
- binding result (mouse CSF1R ECD): no binding
B12: huAb5 (antibody, human IgG4 S228P, kappa)
heavy: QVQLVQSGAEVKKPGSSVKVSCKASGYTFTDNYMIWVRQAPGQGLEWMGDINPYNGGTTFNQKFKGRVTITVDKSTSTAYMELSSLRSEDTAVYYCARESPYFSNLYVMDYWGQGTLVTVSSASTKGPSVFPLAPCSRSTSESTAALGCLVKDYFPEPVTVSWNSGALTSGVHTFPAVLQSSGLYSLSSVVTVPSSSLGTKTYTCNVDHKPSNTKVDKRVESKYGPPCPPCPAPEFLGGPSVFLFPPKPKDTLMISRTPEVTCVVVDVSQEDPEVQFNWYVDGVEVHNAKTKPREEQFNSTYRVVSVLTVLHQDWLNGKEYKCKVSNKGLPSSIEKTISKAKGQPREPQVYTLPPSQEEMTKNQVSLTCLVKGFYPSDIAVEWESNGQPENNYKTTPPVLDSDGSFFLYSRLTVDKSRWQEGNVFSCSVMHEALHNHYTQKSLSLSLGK
light: NIVLTQSPATLSLSPGERATLSCKASQSVDYDGDNYMNWYQQKPGQAPRLLIYAASNLESGIPARFSGSGSGTDFTLTISSLEPEDFAVYYCHLSNEDLSTFGGGTKVEIKRTVAAPSVFIFPPSDEQLKSGTASVVCLLNNFYPREAKVQWKVDNALQSGNSQESVTEQDSKDSTYSLSSTLTLSKADYEKHKVYACEVTHQGLSSPVTKSFNRGEC
notes: also called huAb 0301-L1H1; h0301-H1 / h0301-L1

- binding result [1]: binds
- binding result (mouse CSF1R ECD): no binding
B13: huAb3 (antibody, human IgG4 S228P, kappa)
heavy: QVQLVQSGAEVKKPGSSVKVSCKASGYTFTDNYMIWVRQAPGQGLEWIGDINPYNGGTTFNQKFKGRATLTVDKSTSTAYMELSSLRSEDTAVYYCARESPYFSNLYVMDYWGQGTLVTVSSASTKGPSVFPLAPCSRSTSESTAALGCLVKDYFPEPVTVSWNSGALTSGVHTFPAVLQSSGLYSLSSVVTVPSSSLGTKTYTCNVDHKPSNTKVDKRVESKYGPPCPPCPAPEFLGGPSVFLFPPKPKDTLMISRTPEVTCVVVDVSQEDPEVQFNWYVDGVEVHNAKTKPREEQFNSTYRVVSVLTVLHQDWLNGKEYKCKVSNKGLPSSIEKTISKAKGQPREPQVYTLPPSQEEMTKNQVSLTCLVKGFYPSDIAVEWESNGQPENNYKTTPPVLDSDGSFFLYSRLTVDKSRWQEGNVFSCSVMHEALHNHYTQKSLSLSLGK
light: B12 light with N1E
notes: also called huAb 0301-L0H2; h0301-H2 / h0301-L0

- binding result [1]: binds
- binding result (mouse CSF1R ECD): no binding
B14: huAb6 (antibody, human IgG4 S228P, kappa)
heavy: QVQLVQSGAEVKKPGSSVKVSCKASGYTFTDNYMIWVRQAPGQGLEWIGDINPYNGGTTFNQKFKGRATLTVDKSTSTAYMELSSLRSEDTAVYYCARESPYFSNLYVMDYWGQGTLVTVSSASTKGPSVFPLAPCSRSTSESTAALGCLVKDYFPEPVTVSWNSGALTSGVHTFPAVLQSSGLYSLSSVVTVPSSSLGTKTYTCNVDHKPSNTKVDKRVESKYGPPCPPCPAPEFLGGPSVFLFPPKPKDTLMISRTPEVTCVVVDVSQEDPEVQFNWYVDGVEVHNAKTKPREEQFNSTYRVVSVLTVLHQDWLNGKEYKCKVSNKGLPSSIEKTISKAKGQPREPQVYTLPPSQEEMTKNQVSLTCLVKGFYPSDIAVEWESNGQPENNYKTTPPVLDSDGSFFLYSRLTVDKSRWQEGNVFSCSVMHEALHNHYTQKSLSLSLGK
light: B12 light
notes: also called huAb 0301-L1H2; h0301-H2 / h0301-L1

- binding result [1]: binds
- binding result (mouse CSF1R ECD): no binding
B15: huAb1 (antibody, human IgG4 S228P, kappa)
heavy: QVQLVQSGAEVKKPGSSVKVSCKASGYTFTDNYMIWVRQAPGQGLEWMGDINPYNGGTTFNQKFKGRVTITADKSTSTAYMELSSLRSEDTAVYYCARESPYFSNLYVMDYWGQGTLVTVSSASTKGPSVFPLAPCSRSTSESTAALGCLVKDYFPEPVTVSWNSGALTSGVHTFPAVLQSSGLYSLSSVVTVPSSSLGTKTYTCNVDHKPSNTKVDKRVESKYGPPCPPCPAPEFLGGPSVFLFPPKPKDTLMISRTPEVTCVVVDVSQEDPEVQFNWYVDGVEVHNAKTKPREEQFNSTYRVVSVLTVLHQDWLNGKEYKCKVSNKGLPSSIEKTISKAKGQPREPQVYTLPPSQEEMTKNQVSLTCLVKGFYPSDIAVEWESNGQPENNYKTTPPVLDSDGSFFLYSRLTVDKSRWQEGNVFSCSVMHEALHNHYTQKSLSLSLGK
light: B12 light with N1E
notes: also called huAb 0301-L0H0; FPA008

- binding result [1]: binds
- binding result (mouse CSF1R ECD): no binding
B16: huAb4 (antibody, human IgG4 S228P, kappa)
heavy: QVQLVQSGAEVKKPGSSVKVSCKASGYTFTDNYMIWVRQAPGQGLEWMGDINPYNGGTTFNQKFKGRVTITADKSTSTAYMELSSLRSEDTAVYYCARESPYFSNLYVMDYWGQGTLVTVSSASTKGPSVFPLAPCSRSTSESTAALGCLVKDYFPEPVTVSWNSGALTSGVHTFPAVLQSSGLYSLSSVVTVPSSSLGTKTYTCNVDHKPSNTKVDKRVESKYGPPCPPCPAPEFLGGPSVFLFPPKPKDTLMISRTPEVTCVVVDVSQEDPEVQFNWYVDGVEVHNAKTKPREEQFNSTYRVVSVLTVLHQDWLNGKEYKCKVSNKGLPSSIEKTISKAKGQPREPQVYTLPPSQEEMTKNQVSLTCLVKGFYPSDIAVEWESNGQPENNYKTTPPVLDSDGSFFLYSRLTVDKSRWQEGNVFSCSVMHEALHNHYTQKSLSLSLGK
light: B12 light
notes: also called huAb 0301-L1H0; h0301-H0 / h0301-L1

- binding result (rat PD-1): no binding
B17: nivolumab (antibody, human IgG4 S228P, kappa, V domains shown)
VH: QVQLVESGGGVVQPGRSLRLDCKASGITFSNSGMHWVRQAPGKGLEWVAVIWYDGSKRYYADSVKGRFTISRDNSKNTLFLQMNSLRAEDTAVYYCATNDDYWGQGTLVTVSS
VL: EIVLTQSPATLSLSPGERATLSCRASQSVSSYLAWYQQKPGQAPRLLIYDASNRATGIPARFSGSGSGTDFTLTISSLEPEDFAVYYCQQSSNWPRTFGQGTKVEIKR
notes: Fully human IgG4 (S228P); also called Opdivo; 5C4

Continued, binder first:

B1: huAb8 (antibody, human IgG4 S228P, kappa, V domains shown)
VH: QVQLVQSGAEVKKPGSSVKVSCKASGYTFSDFNIHWVRQAPGQGLEWMGYINPYTDVTVYNEKFKGRVTITSDKSTSTAYMELSSLRSEDTAVYYCASYFDGTFDYALDYWGQGTLVTVSS
VL: EIVLTQSPATLSLSPGERATLSCRASESVDNYGLSFMNWYQQKPGQAPRLLIYTASNLESGIPARFSGSGSRTDFTLTISSLEPEDFAVYYCQQSKELPWTFGQGTKVEIKR
notes: also called huAb 0302-L1H1; h0302-H1 / h0302-L1
- binding result [1]: binds
- binding result (mouse CSF1R ECD): no binding

B2: huAb13 (antibody, human IgG4 S228P, kappa, V domains shown)
VH: QVQLVQSGAEVKKPGSSVKVSCKASGYIFTDYNMHWVRQAPGQGLEWMGEINPNNGVVVYNQKFKGRVTITVDKSTSTAYMELSSLRSEDTAVYYCTRALYHSNFGWYFDSWGQGTLVTVSS
VL: B1 VL with R24K, E27Q, N31Y, Y32D, L34D, F36H, R72G, S95G, K96N, L98D
notes: also called huAb 0311-L0H1; h0311-H1 / h0311-L0
- binding result [1]: binds
- binding result (mouse CSF1R ECD): no binding

B3: huAb15 (antibody, human IgG4 S228P, kappa, V domains shown)
VH: B2 VH with R67T, V68T, I70L
VL: B1 VL with R24K, E27Q, N31Y, Y32D, L34D, F36H, R72G, S95G, K96N, L98D
notes: also called huAb 0311-L0H2; h0311-H2 / h0311-L0
- binding result [1]: binds
- binding result (mouse CSF1R ECD): no binding

B4: huAb7 (antibody, human IgG4 S228P, kappa, V domains shown)
VH: B1 VH
VL: B1 VL with R72G
notes: also called huAb 0302-L0H1; h0302-H1 / h0302-L0
- binding result [1]: binds
- binding result (mouse CSF1R ECD): no binding

B5: huAb12 (antibody, human IgG4 S228P, kappa, V domains shown)
VH: B1 VH with M48I, V68A, I70L
VL: B1 VL with L4V, Y40F
notes: also called huAb 0302-L2H2; h0302-H2 / h0302-L2
- binding result [1]: binds
- binding result (mouse CSF1R ECD): no binding

B6: huAb16 (antibody, human IgG4 S228P, kappa, V domains shown)
VH: B2 VH with R67T, V68T, I70L
VL: DIVLTQSPATLSLSPGERATLSCKASQSVDYDGDSHMNWYQQKPGQAPRLLIYTASNLESGIPARFSGSGSGADFTLTISSLEPEDFAVYYCQQGNEDPWTFGQGTKVEIKR
notes: also called huAb 0311-L1H2; h0311-H2 / h0311-L1
- binding result [1]: binds
- binding result (mouse CSF1R ECD): no binding

B7: huAb9 (antibody, human IgG4 S228P, kappa, V domains shown)
VH: B1 VH
VL: B1 VL with L4V, Y40F
notes: also called huAb 0302-L2H1; h0302-H1 / h0302-L2
- binding result [1]: binds
- binding result (mouse CSF1R ECD): no binding

B8: huAb11 (antibody, human IgG4 S228P, kappa, V domains shown)
VH: B1 VH with M48I, V68A, I70L
VL: B1 VL
notes: also called huAb 0302-L1H2; h0302-H2 / h0302-L1
- binding result [1]: binds
- binding result (mouse CSF1R ECD): no binding

B9: huAb14 (antibody, human IgG4 S228P, kappa, V domains shown)
VH: B2 VH
VL: B6 VL
notes: also called huAb 0311-L1H1; h0311-H1 / h0311-L1
- binding result [1]: binds
- binding result (mouse CSF1R ECD): no binding

B10: huAb10 (antibody, human IgG4 S228P, kappa, V domains shown)
VH: B1 VH with M48I, V68A, I70L
VL: B1 VL with R72G
notes: also called huAb 0302-L0H2; h0302-H2 / h0302-L0
- binding result [1]: binds
- binding result (mouse CSF1R ECD): no binding

B11: huAb2 (antibody, human IgG4 S228P, kappa)
heavy: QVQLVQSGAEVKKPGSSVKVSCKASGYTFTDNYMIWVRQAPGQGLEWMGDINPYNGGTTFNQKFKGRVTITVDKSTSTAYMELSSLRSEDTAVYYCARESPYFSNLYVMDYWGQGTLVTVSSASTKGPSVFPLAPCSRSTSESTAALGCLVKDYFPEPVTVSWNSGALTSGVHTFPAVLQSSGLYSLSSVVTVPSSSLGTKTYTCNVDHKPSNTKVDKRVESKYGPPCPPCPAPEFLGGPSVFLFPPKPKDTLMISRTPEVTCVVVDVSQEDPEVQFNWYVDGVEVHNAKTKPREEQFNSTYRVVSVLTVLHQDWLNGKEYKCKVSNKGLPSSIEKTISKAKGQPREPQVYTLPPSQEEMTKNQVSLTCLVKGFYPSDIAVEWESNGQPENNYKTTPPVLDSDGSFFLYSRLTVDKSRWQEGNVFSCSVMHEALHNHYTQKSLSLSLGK
light: B12 light with N1E
notes: also called huAb 0301-L0H1; h0301-H1 / h0301-L0
- binding result [1]: binds
- binding result (mouse CSF1R ECD): no binding
